Laboratory results taken from patent US20250304677A1 (VIB VZW, published 2025).
Each block holds one binder with its values, some of them ahead of it.

Experiments:
[1] = target: T1, mouse folate receptor alpha (mFRα), recombinant protein (mouse, UniProt P35846 25-232); test: ELISA on coated mouse FOLR1, without folic acid
T1 construct: Bought recombinant proteins (e.g. biotinylated, Acro Biosystems FO1-M82E9); also called mFOLR1; Ms FOLR1
Description: (§1) Data were normalized and technical replicates were plotted as mean±SD. Data were fitted by non-linear regression and the half-maximal effective concentration ^{∘}EC50) was calculated using GraphPad Prism 9 software. ^{∘}FIG. 1C and FIG. 1D) Binding affinity determination of anti-FOLR1 VHHs for native FOLR1. Mouse ^{∘}FIG. 1C) or human FOLR1 FIG. 1D) was overexpressed on HEK293T cells and binding of the anti-FOLR1 VHHs was assessed using flow cytometry. The mean fluorescence intensity ^{∘}MFI) of the phycoerythrin signal was plotted for each VHH concentration. Data were fitted by non-linear regression using GraphPad Prism 9 software. ^{∘}FIG. 1E) Determination of the competition of representative family members with folic acid ^{∘}FA) using ELISA. Mouse FOLR1 was coated on the plate and was pre-incubated with or without 100 μM FA before adding the VHHs. Data were fitted by non-linear regression using GraphPad Prism 9 software.
(§2) As interference with the endogenous transport of folates via FRα could have serious implications on brain homeostasis, competition between representative family members and FA for mouse FRα binding was assessed via ELISA ^{∘}FIG. 1E).

[2] = target: T1, mouse folate receptor alpha (mFRα), …; test: BLI tandem binning on mouse FRα; competitor (1st association) 2HFO42
Description: VHHs that share high sequence identity in the CDR3 region, a VHH family, are derived from the same B-cell lineage and diverged from each other due to somatic hypermutation or affinity maturation. Typically, VHHs from the same family recognize the same epitope on the target, but may differ in other characteristics ^{∘}De Genst et al 2006 PNAS 103:4586-4591; De Gents et al 2005 J Biol Chem 280:14114-14121). To study whether the VHHs from the different families bound different epitopes, epitope binning was performed using a tandem binding approach in BLI. One VHH from each family was allowed to bind to mouse FRα on the biosensor, followed by binding of the second VHH ^{∘}Table 4).
Competition between VHHs from different complementarity determining region ^{∘}CDR) 3 families was assessed in a tandem binding assay using biolayer interferometry ^{∘}BLI). Streptavidin biosensors were loaded with biotinylated mouse FRα ^{∘}Acro Biosystems, Cat.nr. FO1-M82E9), followed by binding of anti-FRα VHHs ^{∘}VHH in first association). The biosensors were then transferred to a solution containing a second VHH mixed 1:1 with the first VHH ^{∘}VHH in second association). Using the FortéBio Data Analysis Software the absolute additional binding signal for the second association on top of the first association was calculated. The data were normalized per VHH in first association using the following formula: ^{∘}signal-self)/^{∘}maximum-self) with self being the value of the VHH in first association in combination with the same VHH in second association.

[3] = target: T1, mouse folate receptor alpha (mFRα), …; test: ELISA on coated mouse FOLR1 pre-incubated with 100 µM folic acid
Description: as §1, §2

[4] = target: T2, human FRβ with R135 replaced by glutamine (human, UniProt P14207 17-230); test: flow cytometry on transiently transfected HEK293T cells, 200 nM VHH, mouse anti-His then anti-mouse-PE (B575-A)
T2 construct: The entry is the mutant itself; also called hFRβ R135Q
Description: FIGS. 2A-2C illustrates the epitope mapping of anti-FOLR1 VHHs on human FOLR1/2 chimeras. ^{∘}FIG. 2A) To narrow down the epitope of the anti-folate receptor alpha ^{∘}FOLR1) VHHs, chimeric constructs were generated by exchanging a sequence block in human FOLR1 ^{∘}hFOLR1) by the corresponding human folate receptor beta ^{∘}hFOLR2) sequence, since the VHHs are able to bind both hFOLR1 and mouse FOLR1 ^{∘}mFOLR1; SEQ ID No.97), but not hFOLR2. These regions are indicated by the green arrows. Chimera 1 SEQ ID No. 67) and 7 ^{∘}Ch7; SEQ ID No. 73) also contain an additional residue change at a separate location. […] HEK293T cells were transfected with hFOLR1, hFOLR2, one of the hFOLR1/2 chimeric constructs ^{∘}FIG. 2B) or single residue mutants ^{∘}FIG. 2C). Binding of VHHs 2HFO19, 2HFO42, 3MFR60, and a mouse anti-FOLR1 monoclonal antibody ^{∘}mAb) was detected using a mouse anti-His tag antibody for the VHHs followed by an anti-mouse-phycoerythrin antibody. All VHHs were tested at a concentration of 200 nM and untransfected cells were used as a negative control. The colors used for the VHHs represent the different CDR3 families; blue: family 1, green: family 3, grey: family 10.
To further narrow down which specific residues might play a role, single residues of human FRα in the chimera 4 region that are not conserved between FRα and FRβ were mutated to their human FRβ counterpart. While all VHHs retained binding to human FRα E140Q SEQ ID No. 77), R147H ^{∘}SEQ ID No. 79), and Y150H ^{∘}SEQ ID No. 80) ^{∘}data not shown), binding was completely abolished when the Q141R mutation ^{∘}SEQ ID No. 78) was introduced ^{∘}FIG. 2C). To verify the role of this residue in the binding of the VHHs, the R135 residue in human FRβ was replaced by glutamine ^{∘}SEQ ID No. 81) and binding of the VHHs was analyzed. […] In addition to having ^{∘}partially) overlapping epitopes, the VHHs thus all require residue Q141 for binding.

[5] = target: T1, mouse folate receptor alpha (mFRα), …; test: ELISA on recombinant mouse FOLR1, cMyc tag detection, normalised binding, non-linear fit
Description: as §1
(§3) In a first step, binding affinity and cross-reactivity of the purified VHHs to human and mouse FRα was assessed by ELISA, using detection of the cMyc tag ^{∘}FIG. 1A-B). […] 2HFO19 ^{∘}family 1) was the best binder of all tested VHHs to both mouse and human FRα with an EC₅₀ of 0.1 nM and 0.4 nM respectively ^{∘}FIG. 1A-B).

[6] = target: T3, human folate receptor alpha (hFRα), recombinant protein (human, UniProt P15328 25-233); test: ELISA on recombinant human FOLR1, cMyc tag detection, normalised binding, non-linear fit
T3 construct: Bought recombinant proteins (His-tagged, or biotinylated via Avi-tag, e.g. AcroBiosystems FO1-H82E2, F01-H52H1); also called hFOLR1; huFOLR1
Description: as §1, §3

T2 sequence (P14207 17-230 R135Q limits assumed): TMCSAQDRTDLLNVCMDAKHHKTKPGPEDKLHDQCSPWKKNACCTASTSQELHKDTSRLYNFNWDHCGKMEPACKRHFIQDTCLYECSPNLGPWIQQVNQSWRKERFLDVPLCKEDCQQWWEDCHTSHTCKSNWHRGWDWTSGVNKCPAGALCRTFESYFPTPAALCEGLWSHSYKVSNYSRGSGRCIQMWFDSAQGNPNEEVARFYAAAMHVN
T1 sequence (P35846 25-232 limits assumed): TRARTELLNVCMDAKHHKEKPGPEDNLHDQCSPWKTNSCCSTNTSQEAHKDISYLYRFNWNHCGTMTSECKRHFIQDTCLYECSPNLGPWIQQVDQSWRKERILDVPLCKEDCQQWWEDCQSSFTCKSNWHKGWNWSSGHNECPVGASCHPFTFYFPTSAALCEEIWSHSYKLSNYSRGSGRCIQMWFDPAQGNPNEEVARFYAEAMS
T3 sequence (P15328 25-233 limits assumed): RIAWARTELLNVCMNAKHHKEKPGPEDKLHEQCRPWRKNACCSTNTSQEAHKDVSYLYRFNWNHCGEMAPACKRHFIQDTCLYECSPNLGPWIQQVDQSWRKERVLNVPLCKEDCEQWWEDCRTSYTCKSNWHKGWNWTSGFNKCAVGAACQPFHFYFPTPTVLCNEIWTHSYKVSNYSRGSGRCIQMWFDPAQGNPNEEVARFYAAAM

EC50 (read off the curve) [1]: ~1 nM
normalized additional binding in 2nd association [2]: 12%
EC50 (read off the curve) [3]: ~1 nM
binding result [4]: binds
B1: VHH 2HFO19 (family 1) (VHH)
VHH: QVQLQESGGGLVQPGGSLRVSCAASGFPFSTVYMSWVRQAPGKGLEWVSGINNDGGVIDYADSVKGRFTISRDNAKNTLYLQLNSLKPEDTALYFCARGRSFVATLSSSLRGQGTQVTVSS
notes: also called Nb19

normalized additional binding in 2nd association [2]: 34%
EC50 [5]: 0.3 nM
EC50 [6]: 11.1 nM
binding result [4]: binds
B2: VHH 3MFR60 (family 10) (VHH)
VHH: QVQLQESGGGLVQAGGSLRVSCAASGIIFSMNGMGWFRQAPGKQRELVASITSGGSTKYADSVKGRFTISRDNAKNTVYLQMNSLKPEDTAVYYCNIQFGSRWSTYWGQGTQVTVSS

EC50 (read off the curve) [1]: ~2 nM
normalized additional binding in 2nd association [2]: 0%
EC50 (read off the curve) [3]: 2 to 3 nM
EC50 [5]: 0.2 nM
EC50 [6]: 10.4 nM
binding result [4]: binds
B3: VHH 2HFO42 (family 3) (VHH)
VHH: QVQLQESGGGLVQAGGSLRLSCAASGSGFSGMIMGWYRQVPGKQRELVATVTSHGTTNYADSVKGRFTISRDNAKNTVLLQMNSLKPEDTAVYYCNAHFPGIYWGKGTQVTVSS
notes: also called 2HF042; Nb42
